The supplement of paper PMC10899765

Tests used:
Details in all cases: 20 nM; 72 h
MCF10A [1] = test: percent viability (nuclei count relative to siNT); higher = more viable cells
Protocol: (§1)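 After 72 h, cells were fixed and stained with Hoechst and anti-fibrillarin, and nucleoli per nucleus were counted with CellProfiler. Values are plate-adjusted percent effect for the one-nucleolus and 5+ nucleoli phenotypes, normalised to siNT (0%) and to the positive controls siNOL11 or siKIF11 (100%), as the mean of biological triplicates. Percent viability is the nuclei count relative to siNT.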

MCF10A [2] = test: one-nucleolus phenotype percent effect (relative to siNT 0% and siNOL11 100%); higher = more cells with one nucleolus (ribosome biogenesis inhibition)
Protocol: as §1

MCF10A [3] = test: 5+ nucleoli phenotype percent effect (relative to siNT 0% and siKIF11 100%); higher = more cells with five or more nucleoli
Protocol: as §1

Sequence	percent viability (MCF10A [1]) [%]	one-nucleolus phenotype percent effect (MCF10A [2]) [%]	5+ nucleoli phenotype percent effect (MCF10A [3]) [%]
UGGACCUCUCCUCCCCAG [hsa-miR-6861-3p]	40.5	2.35	7.71
UGGACGGAGAACUGAUAAGGGU [hsa-miR-184]	43	-17.7	80.3
UGGACUGCCCUGAUCUGGAGA [hsa-miR-1288]	33	7.88	2.11
UGGAGACGCGGCCCUGUUGGAGU [hsa-miR-139-3p]	68	20.9	-24.5
UGGAGAGAAAGGCAGUA [hsa-miR-4306]	13.5	-8.22	31.6
UGGAGAGAAAGGCAGUUCCUGA [hsa-miR-185-5p]	21.7	5.33	-10.1
UGGAGAGAGAAAAGAGACAGAAG [hsa-miR-4644]	74.5	-24.6	39.4
UGGAGAUCCAGUGCUCGCCCGAU [hsa-miR-4683]	56.7	24.4	-20.1
UGGAGGAGAAGGAAGGUGAUG [hsa-miR-765]	21.1	26.5	16.3
UGGAGUGUGACAAUGGUGUUUG [hsa-miR-122-5p]	52.7	-11.4	14.4
UGGAGUUAAGGGUUGCUUGGAGA [hsa-miR-4653-3p]	12.9	47.6	-39.9
UGGAUAUGAUGACUGAAA [hsa-miR-4791]	71.5	-7.67	4.66
UGGAUGACAGUGGAGGCCU [hsa-miR-6744-5p]	20.5	37.8	-19.1
UGGAUGUGGAAGGAGUUAUCU [hsa-miR-4764-5p]	7.49	-0.862	-8.02
UGGAUUUCUUUGUGAAUCACCA [hsa-miR-876-5p]	143	-21.7	24.8
UGGAUUUUUGGAUCAGGGA [hsa-miR-1290]	51	7	-26.7
UGGCAAACGUGGAAGCCGAGA [hsa-miR-4470]	15.8	61	-21.5
UGGCAGGGAGGCUGGGAGGGG [hsa-miR-1207-5p]	24.4	24.5	-30.5
UGGCAGUGUAUUGUUAGCUGGU [hsa-miR-449a]	14	36.9	-16.3
UGGCAGUUACUUUUGCACCAG [hsa-miR-548au-3p]	5.53	31.4	-17.4
UGGCCAAAAAGCAGGCAGAGA [hsa-miR-3926]	31.6	11.5	0.491
UGGCCCAACCUAUUCAGUUAGU [hsa-miR-3136-3p]	140	-25.2	34.8
UGGCCCAAGACCUCAGACC [hsa-miR-7155-3p]	35.1	11.3	18.5
UGGCCCGGCGACGUCUCACGGUC [hsa-miR-4745-3p]	58.7	-29.1	45
UGGCCCUGACUGAAGACCAGCAGU [hsa-miR-1291]	51	5.12	23.5
UGGCCCUUUGUACCCCUCCAG [hsa-miR-6851-3p]	49.2	-21.4	54.7
UGGCCGGAUGGGACAGGAGGCAU [hsa-miR-4743-5p]	25.6	20.6	-11.6
UGGCGAUUUUGGAACUCAAUGGCA [hsa-miR-8053]	36.7	4.42	6.04
UGGCGGCGGUAGUUAUGGGCUU [hsa-miR-4467]	30.8	39.9	-36
UGGCGGGGGUAGAGCUGGCUGC [hsa-miR-6787-5p]	23.7	30	-19.2
